B1: COVID19_P13_G12 (scFv, V domains shown)
VH: QVQLVQSGAEVKKPGSSVKVSCKASGYTFINYEIHWVRQAPGQGLEWMGGITPIFGTANYAQKFQGRVTITADESTSTAYMELSSLRSEDTAVYYCARDTVMGGMDVWGQGTLVTVSS
VL: SSYVLTQPPSVSVAPGKTARITCGGNNIGSKSVHWYQQKPGQAPVLVIYYDSDRPSGIPERFSGSNSGNTATLTISRVEAGDEADYYCQVWDSSSDYVFGGGTKLTVLA
B2: COVID19_P01_C09 (scFv, V domains shown)
VH: B1 VH with I30T, N31S, Y32F, E33D, T52I, R98Y, D99E
VL: B1 VL with D96Y
B3: COVID19_P01_B06 (scFv, V domains shown)
VH: QVQLVQSGAEVKKPGSSVKVSCKASGYTFSAYYMHWVRQAPGQGLEWMGGITPLFGTPSYAQKFQGRVTITADESTSTAYMELSSLRSEDTAVYYCALETVMGGVGVWGQGTLVTVSS
VL: B1 VL with G81V
B4: COVID19_P14_D11 (scFv, V domains shown)
VH: QVQLVQSGAEVKKPGSSVKVSCKASGYTFNRFAMTWVRQAPGQGLEWMGTINPSGGSTIYTQRFQGRVTITADESTSTAYMELSSLRSEDTAVYYCGHDTVMGGMGEWGQGTLVTVSS
VL: B1 VL with V90S, W91T
B5: COVID19_P01_E12 (scFv, V domains shown)
VH: QVQLVQSGAEVKKPGSSVKVSCKASGYTFTTYDINWVRQAPGQGLEWMGWINPNSGGTNYAQKFQGRVTITADESTSTAYMELSSLRSEDTAVYYCARDTYWGGMDVWGQGTLVTVSS
VL: B1 VL with Y50D, D96F
B6: COVID19_P13_C07 (scFv, V domains shown)
VH: QVQLVQSGAEVKKPGSSVKVSCKASGGTFSRYDINWVRQAPGQGLEWMGIINPSGGSTTYAQKFQGRVTITADESTSTAYMELSSLRSEDTAVYYCAHDTVMGGMDVWGQGTLVTVSS
VL: B1 VL with D96Y
B7: COVID19_P01_E06 (scFv, V domains shown)
VH: QVQLVQSGAEVKKPGSSVKVSCKASGCTFTRFTMHWVRQAPGQGLEWMGGITPIFGITNYAQKFQGRVTITADESTSTAYMELSSLRSEDTAVYYCAHDTVMGGMEEWGQGTLVTVSS
VL: B1 VL with S95N
B8: COVID19_P02_H04 (scFv, V domains shown)
VH: B1 VH with I30S, N31S, Y32F, E33H, H35N, T57I, R98L, D99E
VL: B1 VL with V90S, S95G
B9: COVID19_P14_C12 (scFv, V domains shown)
VH: B5 VH with W50I, N52D, N54I, S55G, G57T, Y101V, W102G, G103F
VL: B1 VL with Y50D, D96L

Changes are numbered by the printed parent chain.

The target in one assay is T1, SARS-CoV-2 Receptor Binding Domain (RBD) protein (SARS-CoV-2, UniProt P0DTC2 319-541).
T1 construct: also called Sars-Cov-2 (COV2)
The assay can be described thus: SPR (Carterra LSA).
By Kd is commonly meant a measure of binding affinity in units of concentration. A low value points to higher affinity. The molecule B1 showed a Kd of less than 50 nM.
Molecule B2 yielded a Kd of less than 50 nM.
The same measure, in the same setting: the figure for B3 is less than 50 nM.

The next assay addresses T1, SARS-CoV-2 Receptor Binding Domain …. Nature of the assay: SPR (Carterra LSA); scFv captured by anti-V5, RBD as analyte.
By koff is commonly meant the first-order rate constant of dissociation. A low value points to a long-lived complex. What is called kon is the rate constant with which the complex forms. High values mean faster complex formation, low ones slower complex formation. For the molecule B1, binding was put at a Kd of 6.48 nM, the koff came to 0.00088 s⁻¹ and the kon was determined as 140000 M⁻¹ s⁻¹.
As to B4, the Kd was 48.2 nM, the dissociation rate constant (koff) was found to be 0.00987 s⁻¹ and the kon amounted to 205000 M⁻¹ s⁻¹.
The like results for B5 were, in that order, 32.5 nM, 0.0108 s⁻¹ and 331000 M⁻¹ s⁻¹.
The like results for B6 were, in that order, 41.5 nM, 0.0095 s⁻¹ and 230000 M⁻¹ s⁻¹.
Turning to B2, the affinity, expressed as Kd, was 18.2 nM; the koff was determined as 0.0097 s⁻¹; the kon was 532000 M⁻¹ s⁻¹.
The like results for B3 were, in that order, 28 nM, 0.0122 s⁻¹ and 437000 M⁻¹ s⁻¹.
With B7, the affinity, expressed as Kd, was 48.7 nM; the koff was found to be 0.0118 s⁻¹; the kon stood at 242000 M⁻¹ s⁻¹.
The corresponding values for B8 are 31.9 nM, 0.00781 s⁻¹ and 245000 M⁻¹ s⁻¹.
The corresponding values for B9 are 7.8 nM, 0.000725 s⁻¹ and 93000 M⁻¹ s⁻¹.

Source of the values: patent publication US20230272051A1 (CENTIVAX, published 2023).
